Laboratory results published in publication PMC11275212, “Eukaryotic Pif1 helicase unwinds G-quadruplex and dsDNA using a conserved wedge” (Nature Communications, 2024).

Tests used:
[1] = biological target: T1, ScPif1 (Saccharomyces cerevisiae Pif1, residues 236–753) (Saccharomyces cerevisiae, UniProt P07271); test: ATP hydrolysis assay; assay type: biochemical; settings: ATPase rate only in supplement
T1 construct: helicase core domain, residues 236-753; N-terminal SUMO tag (pET28a) cleaved by Ulp protease; E. coli BL21; monomer on G4 DNA
T1 sequence (P07271 236-753): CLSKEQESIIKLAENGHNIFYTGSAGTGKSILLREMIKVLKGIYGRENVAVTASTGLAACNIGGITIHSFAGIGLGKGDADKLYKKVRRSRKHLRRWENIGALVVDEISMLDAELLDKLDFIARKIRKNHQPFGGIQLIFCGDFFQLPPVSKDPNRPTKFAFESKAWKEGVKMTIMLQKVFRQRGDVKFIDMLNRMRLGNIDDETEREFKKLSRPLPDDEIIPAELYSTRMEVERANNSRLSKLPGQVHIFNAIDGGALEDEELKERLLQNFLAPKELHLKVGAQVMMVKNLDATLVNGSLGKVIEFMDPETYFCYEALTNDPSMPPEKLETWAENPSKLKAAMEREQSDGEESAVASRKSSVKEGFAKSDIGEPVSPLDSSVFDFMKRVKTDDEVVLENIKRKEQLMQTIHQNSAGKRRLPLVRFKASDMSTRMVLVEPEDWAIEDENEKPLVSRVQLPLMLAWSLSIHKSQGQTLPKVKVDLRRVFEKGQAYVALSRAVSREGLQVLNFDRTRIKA

ScPif1 R324E = biological target: T2, ScPif1 R324E (Saccharomyces cerevisiae, UniProt P07271 236-753, R324E); test: fluorescence anisotropy; no nucleotide; Fluorescence anisotropy: 20 mM HEPES-NaOH pH 7.5, 100 mM NaCl, 10% glycerol, 20 C, 10 nM FAM-DNA, 30 min, quadratic fit; settings: protein: recombinant; tags: N-terminal SUMO tag, cleaved; label: 3' 6-FAM; parallel intramolecular G4
T2 sequence: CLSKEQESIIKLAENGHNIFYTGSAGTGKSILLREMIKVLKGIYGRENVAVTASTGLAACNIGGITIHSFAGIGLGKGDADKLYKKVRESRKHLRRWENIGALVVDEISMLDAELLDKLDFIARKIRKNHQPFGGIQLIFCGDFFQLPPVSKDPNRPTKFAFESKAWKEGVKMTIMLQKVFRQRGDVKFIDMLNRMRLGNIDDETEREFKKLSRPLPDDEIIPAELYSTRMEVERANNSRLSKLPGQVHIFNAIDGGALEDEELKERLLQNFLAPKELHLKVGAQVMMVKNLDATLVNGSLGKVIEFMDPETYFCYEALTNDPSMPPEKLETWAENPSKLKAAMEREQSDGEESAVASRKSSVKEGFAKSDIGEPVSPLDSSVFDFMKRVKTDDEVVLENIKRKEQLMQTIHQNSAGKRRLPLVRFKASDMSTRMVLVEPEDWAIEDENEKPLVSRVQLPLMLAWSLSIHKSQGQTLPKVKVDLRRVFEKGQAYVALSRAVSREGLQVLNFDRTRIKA

ScPif1 R324A = biological target: T3, ScPif1 R324A (Saccharomyces cerevisiae, UniProt P07271 236-753, R324A); test: as above; settings: protein: recombinant; tags: N-terminal SUMO tag, cleaved; label: 3' 6-FAM; parallel intramolecular G4
T3 sequence: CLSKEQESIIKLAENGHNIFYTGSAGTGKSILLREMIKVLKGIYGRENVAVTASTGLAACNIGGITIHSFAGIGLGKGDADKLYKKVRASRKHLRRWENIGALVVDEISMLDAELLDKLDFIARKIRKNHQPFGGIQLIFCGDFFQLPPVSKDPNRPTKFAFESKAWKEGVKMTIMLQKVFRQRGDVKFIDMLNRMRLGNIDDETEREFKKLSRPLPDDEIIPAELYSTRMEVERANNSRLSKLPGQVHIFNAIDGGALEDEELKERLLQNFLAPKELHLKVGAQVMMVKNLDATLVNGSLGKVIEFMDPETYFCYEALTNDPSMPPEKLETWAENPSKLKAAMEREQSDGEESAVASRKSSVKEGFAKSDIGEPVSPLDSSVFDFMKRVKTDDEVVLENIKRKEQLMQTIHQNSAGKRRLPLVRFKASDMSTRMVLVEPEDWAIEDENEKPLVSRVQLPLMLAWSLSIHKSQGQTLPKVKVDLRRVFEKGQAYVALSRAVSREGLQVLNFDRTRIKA

ScPif1 = biological target: T4, ScPif1 (Saccharomyces cerevisiae, UniProt P07271 236-753); test: as above; settings: protein: recombinant, tags: N-terminal SUMO tag (Ni-NTA purified), cleaved by Ulp protease, label: 3' 6-FAM
T4 sequence: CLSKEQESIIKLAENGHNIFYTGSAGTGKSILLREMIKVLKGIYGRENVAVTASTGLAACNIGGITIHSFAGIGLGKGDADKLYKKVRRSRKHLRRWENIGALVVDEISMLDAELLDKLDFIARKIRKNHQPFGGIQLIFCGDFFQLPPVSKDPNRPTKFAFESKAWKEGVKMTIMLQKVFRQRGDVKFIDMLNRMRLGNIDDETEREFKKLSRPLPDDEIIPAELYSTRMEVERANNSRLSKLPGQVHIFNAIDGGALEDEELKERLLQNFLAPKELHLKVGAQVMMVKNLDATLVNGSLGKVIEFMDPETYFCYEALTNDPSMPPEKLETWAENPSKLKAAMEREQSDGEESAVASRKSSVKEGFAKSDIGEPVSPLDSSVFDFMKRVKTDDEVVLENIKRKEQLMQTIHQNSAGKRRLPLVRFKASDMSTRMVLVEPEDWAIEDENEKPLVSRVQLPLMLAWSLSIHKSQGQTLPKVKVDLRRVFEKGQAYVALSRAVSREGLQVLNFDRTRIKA

ScPif1 R324W = biological target: T5, ScPif1 R324W (Saccharomyces cerevisiae, UniProt P07271 236-753, R324W); test: as above; settings: protein: recombinant; tags: N-terminal SUMO tag, cleaved; label: 3' 6-FAM; parallel intramolecular G4
T5 sequence: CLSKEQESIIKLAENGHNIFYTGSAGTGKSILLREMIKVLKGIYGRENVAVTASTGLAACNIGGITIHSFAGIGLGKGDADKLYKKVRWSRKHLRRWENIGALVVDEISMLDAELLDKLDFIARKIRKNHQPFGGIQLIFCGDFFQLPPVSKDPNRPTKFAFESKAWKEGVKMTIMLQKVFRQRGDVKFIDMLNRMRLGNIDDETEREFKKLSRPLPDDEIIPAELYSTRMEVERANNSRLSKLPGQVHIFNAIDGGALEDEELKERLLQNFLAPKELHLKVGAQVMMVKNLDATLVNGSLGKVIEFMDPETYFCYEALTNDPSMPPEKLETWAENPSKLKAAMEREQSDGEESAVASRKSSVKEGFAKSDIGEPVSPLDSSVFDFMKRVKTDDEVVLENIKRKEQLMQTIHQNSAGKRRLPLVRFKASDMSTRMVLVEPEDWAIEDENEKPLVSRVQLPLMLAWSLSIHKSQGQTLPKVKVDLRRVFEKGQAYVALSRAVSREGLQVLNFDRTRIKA

ScPif1 R324Y = biological target: T6, ScPif1 R324Y (Saccharomyces cerevisiae, UniProt P07271 236-753, R324Y); test: as above; settings: protein: recombinant; tags: N-terminal SUMO tag, cleaved; label: 3' 6-FAM; parallel intramolecular G4
T6 sequence: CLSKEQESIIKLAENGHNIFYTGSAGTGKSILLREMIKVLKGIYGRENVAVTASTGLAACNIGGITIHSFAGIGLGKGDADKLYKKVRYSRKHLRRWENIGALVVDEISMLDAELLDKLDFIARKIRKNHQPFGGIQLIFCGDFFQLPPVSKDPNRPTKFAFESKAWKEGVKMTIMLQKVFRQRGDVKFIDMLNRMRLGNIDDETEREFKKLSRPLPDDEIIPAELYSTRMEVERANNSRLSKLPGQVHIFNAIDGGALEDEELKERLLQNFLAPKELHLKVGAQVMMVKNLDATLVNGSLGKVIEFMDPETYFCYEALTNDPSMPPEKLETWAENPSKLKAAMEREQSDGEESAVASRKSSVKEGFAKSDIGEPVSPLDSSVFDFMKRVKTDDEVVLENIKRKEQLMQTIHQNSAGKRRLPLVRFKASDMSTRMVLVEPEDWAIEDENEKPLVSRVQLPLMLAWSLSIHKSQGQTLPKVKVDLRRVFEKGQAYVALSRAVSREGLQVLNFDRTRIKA

Nc1ncnc2c1ncn2[C@@H]1O[C@H](COP(=O)(O)OP(=O)(O)OP(=O)(O)O)[C@@H](O)[C@H]1O [ATP]
ATP hydrolysis assay [1]: they hydrolyze ATP at a similar rate to WT ScPif1

TGGTGGTGGTTGTTGTGGTGGTGGTGGT (structured_DNA) [AT11-FAM]
Kd (ScPif1 R324E): 25.6 nM
Kd (ScPif1 R324A): 11.8 nM
Kd (ScPif1; parallel intramolecular G4): 11.2 nM
Kd (ScPif1 R324W): 9.57 nM
Kd (ScPif1 R324Y): 10.9 nM

TTTTTTTTGGTGGTGGTTGTTGTGGTGGTGGTGGT (structured_DNA) [T7-AT11-FAM]
Kd (ScPif1; parallel intramolecular G4 with 5' ssDNA tail): 7.23 nM

TTTTTTT (ssDNA) [T7-FAM]
Kd (ScPif1; single strand): 12.8 nM
